Test results: US20240262893A1 (APPLIED BIOMEDICAL SCIENCE INSTITUTE, published 2024)
Where two headings read alike, the source gives them in different places.

How the values were obtained:
[1] = biological target: T1, parental receptor binding domain (RBD) protein (amino acids 319 to 541 of the spike protein) with c-terminal … (SARS-CoV-2 (Wuhan-Hu-1), UniProt P0DTC2 319-541)
[2] = biological target: T2, SARS CoV-2 spike trimer protein from the parental Wuhan-Hu-1 isolate (extracellular domain, furin-cl (SARS-CoV-2 (Wuhan-Hu-1)))
[3] = biological target: T3, SARS-CoV-2 (Wuhan-Hu-1) wild-type (WT) spike protein carried on pseudotyped virus or on live wild-type virus (SARS-CoV-2 (Wuhan-Hu-1), UniProt P0DTC2 14-1273); assay: cell-based or functional assay
[4] = biological target: T1, parental receptor binding domain (RBD) …; assay: ELISA, RBD coated, IgG detected with anti-human Fc-HRP
[5] = biological target: T2, SARS CoV-2 spike trimer protein from …; remark: listed apart in the source
[6] = biological target: recombinant stabilized spike protein derived from the beta strain (formerly described as the South A (SARS-CoV-2 (B.1.351), UniProt P0DTC2 14-1208))
[7] = biological target: T3, SARS-CoV-2 (Wuhan-Hu-1) wild-type (WT) …; assay: cell-based or functional assay; remark: listed apart in the source
[8] = biological target: T4, SARS-CoV-2 B.1.351 ('SA', beta) variant spike protein on pseudotyped virus or live virus (SARS-CoV-2 (B.1.351), UniProt P0DTC2 14-1273); assay: cell-based or functional assay
[9] = biological target: T4, SARS-CoV-2 B.1.351 ('SA', beta) variant …; assay: cell-based or functional assay; remark: listed apart in the source
[10] = biological target: SARS-CoV-2 spike protein variant 484K on pseudotyped virus (SARS-CoV-2, UniProt P0DTC2 14-1273); assay: cell-based or functional assay
[11] = biological target: T2, SARS CoV-2 spike trimer protein from …; assay: ELISA, spike protein coated, IgG detected with anti-human Fc-HRP
[12] = biological target: S protein of a SARS-CoV-2 delta lineage virus on pseudotyped virus (SARS-CoV-2 (delta lineage)); assay: cell-based or functional assay

B1: R2G3 ultralong CDR3 chimeric bovine-human IgG1 antibody (antibody)
VH: QVQLRESGPSLVKPSQTLSLTCAASGFSLSDKAVGWVRRAPGKALEWLGSIDTGGSTGYNPGLKSRLSITKDNSKSQVSLSISSVTSEDSATYYCATVHQKTAEGDKTCPDGYEHTCGCIGGCGCKRSACIGALCCQASLGGWLSDGETYTYEFHVDTWGQGLVVTVSS
VL: QAVLNQPSSVSGSLGQRVSITCSGSSSNVGNGYVSWYQLIPGSAPRTLIYGDTSRASGVPDRFSGSRSGNTATLTISSLQAEDEADYFCASAEDSSSNAVFGSGTTLTVL
With B1 the “EC50 (read off the curve)” value [1] was ~0.02 nM, the “EC50 (read off the curve)” value [2] was ~0.01 nM and the “live SARS CoV-2 neutralization, ng/mL (quantity not given)” value [3] was 0.5 ng/mL. The “pseudovirus neutralization, ng/mL (quantity not given)” value [3] was 0.2 ng/mL, the EC50 [4] was 0.056 nM and the “EC50 (read off the curve)” value [5] was ~0.4 nM. For the same binder, the “EC50 (read off the curve)” value [6] was ~0.2 nM and the “pseudovirus neutralization IC50 (luciferase assay)” value [7] was > 1 ng/mL.

B2: SKM ultralong CDR3 chimeric bovine-human IgG1 antibody (antibody)
VH: QVQLRESGPSLVKPSQTLSLTCTASGFSLSDKAVGWVRQAPGKALEWLGSIDTGGNTGYNPGLKSRLSITKDNSKSQVSLSVSSVTTEDSATYYCTTVHQETLRSCPDGYIDNSGCTADWGCAALDCWRRRFGYHSTDPSHYTGATYIYTYSLHIDAWGQGLLVTVSS
VL: QAVLNQPSSVSGSLGQRVSITCSGSSSNVGNGYVSWYQLIPGSAPRTLIYGDTSRASGVPDRFSGSRSGNTATLTISSLQAEDEADYFCASAEDSSSNAVFGSGTTLTVL
B2 was tested, and the “pseudovirus neutralization, ng/mL (quantity not given)” value [8] was > 1000 ng/mL, the “pseudovirus luciferase assay EC50” value [9] was > 1 nM and the “pseudovirus luciferase assay EC50” value [10] was > 1 nM.

B3: R2B1 chimeric bovine-human IgG1 antibody (antibody, V domains shown)
VH: QVQLRESGPSLVKPSQTLSLTCTVSGFSLSDNNVGWVRQAPGKALEWLGVMHNDGNKGYNPALKSRLSITKDSSKSQVSLSLSSVTSEDTATYYCTRDNARCDSWTYDSCDTWYRNSWHVDAWGQGLLVTVSS
VL: QAVLNQPSSVSGSLGQRVSITCSGSSSNVGNGYVSWYQLIPGSAPRTLIYGDTSRASGVPDRFSGSRSGNTATLTISSLQAEDEADYFCASAEDSSSNAVFGSGTTLTVL
B3 gave an EC50 [11] of 0.37 nM and an EC50 [4] of 0.52 nM.

B4: R2D9 ultralong CDR3 chimeric bovine-human IgG1 antibody (antibody)
VH: QVQLRESGPSLVKPSQTLSLTCTASGFSLSDKAIGWVRQAPGKALEWLGSIDTRGNTGYNPGLKSRLSITKDSSKSQVSLSVNSVTTEDSATYLCAIVQQITHKTCPNGYNWFDRCCSWDGTCGDGCCSNRAWPSGNGRADSSIGETYGYEFHVAAWGQGLLVTVSS
VL: QAVLNQPSSVSGSLGQRVSITCSGSSSNVGNGYVSWYQLIPGSAPRTLIYGDTSRASGVPDRFSGSRSGNTATLTISSLQAEDEADYFCASAEDSSSNAVFGSGTTLTVL
In the case of B4, the “pseudovirus neutralization, ng/mL (quantity not given)” value [8] is reported as 0.33 ng/mL, the “pseudovirus neutralization, ng/mL (quantity not given)” value [12] is reported as 0.32 ng/mL and the “pseudovirus neutralization, ng/mL (quantity not given)” value [3] is reported as 0.26 ng/mL.

B5: R4C1 ultralong CDR3 chimeric bovine-human IgG1 antibody (antibody)
VH: QVQLRESGPSLVKPSQTLSLTCTASGFSLSDKAVGWVRQAPGKPLEWLGSIDTAENTGYNPGLKSRLSITKDNSKSQVSLSVSSVTTEDSATYYCATVHQKTRKEKNCPDGYIYSSNTASGYDCGVWICRRVGSAFCSRTGDYTSPSEFDIYEFYVEGWGQGLLVTVSS
VL: QAVLNQPSSVSGSLGQRVSITCSGSSSNVGNGYVSWYQLIPGSAPRTLIYGDTSRASGVPDRFSGSRSGNTATLTISSLQAEDEADYFCASAEDSSSNAVFGSGTTLTVL
B5 was tested, and the “pseudovirus neutralization, ng/mL (quantity not given)” value [8] was 375 ng/mL and the “pseudovirus neutralization, ng/mL (quantity not given)” value [3] was 99.9 ng/mL.

B6: RBD F4 chimeric bovine-human IgG1 antibody (antibody, V domains shown)
VH: QVQLRESGPSLVKPSQTLSLTCTVSGFSLSSNGVVWVRQAPGKALEWLGDICSTGGTSFNPALKSRLSIAKDNSKSQVSLSVRSVTPEDTATYYCARSRGYDCYANVDALDYVDAWGQGLLVTVSS
VL: QAVLNQPSSVSGSLGQRVSITCSGSSSNVGNGYVSWYQLIPGSAPRTLIYGDTSRASGVPDRFSGSRSGNTATLTISSLQAEDEADYFCASAEDSSSNAVFGSGTTLTVL
With B6 the EC50 [11] was 0.03 nM and the EC50 [4] was 0.03 nM.

B7: R2F12 ultralong CDR3 chimeric bovine-human IgG1 antibody (antibody)
VH: QVQLRESGPSLVKPSQTLSLTCTVSGFSLSDKAVGWVRRAPGKALEWLGSIDTGGMTGYNPGLKSRLSITKDNSKSQVSLSVNSVTTEDSATYYCATVDQKTKNACPDDFDYRCSCIGGCGCARKGCVGPLCCRSDLGGYLTDSPAYIYEWYIDLWGQGLLVTVSS
VL: QAVLNQPSSVSGSLGQRVSITCSGSSSNVGNGYVSWYQLIPGSAPRTLIYGDTSRASGVPDRFSGSRSGNTATLTISSLQAEDEADYFCASAEDSSSNAVFGSGTTLTVL
B7 was tested, and the “EC50 (read off the curve)” value [1] was ~0.03 nM, the “EC50 (read off the curve)” value [2] was ~0.02 nM and the EC50 [11] was 0.05 nM. The EC50 [4] was 0.085 nM, the “EC50 (read off the curve)” value [5] was ~0.3 nM and the “EC50 (read off the curve)” value [6] was ~0.2 nM.

B8: R2C3 (R5C1) ultralong CDR3 chimeric bovine-human IgG1 antibody (antibody)
VH: QVQLRESGPSLVKPSQTLSLTCTASGFSLSDKPVGWVRQAPGKPLEWLGSIDTAENTGYNPGLKSRLSITKDNSKSQVSLSLSSVTTEDSATYYCATVHQKTRKEKSCPDGYLYSSNTGRGYDCGVWTCRRVGGEFCSATGDWTSPSEEDFYEFYVDTWGQGAPVTVSS
VL: QAVLNQPSSVSGSLGQRVSITCSGSSSNVGNGYVSWYQLIPGSAPRTLIYGDTSRASGVPDRFSGSRSGNTATLTISSLQAEDEADYFCASAEDSSSNAVFGSGTTLTVL
For B8, the EC50 [11] was 0.39 nM, the “EC50 (read off the curve)” value [5] was ~0.3 nM and the “EC50 (read off the curve)” value [6] was ~0.3 nM.

B9: SKD ultralong CDR3 chimeric bovine-human IgG1 antibody (antibody)
VH: QVQLRESGPSLVKPSQTLSLTCTASGFSLSDKAVGWVRQAPGKALEWLGSIDTGGNTGYNPGLKSRLSITKDNSKSQVSLSVSSVTTEDSATYYCTTVHQRTSEKRSCPGGSSRRYPSGASCDVSGGACACYVSNCRGVLCPTLNEIVAYTYEWHVDAWGQGLLVTVSS
VL: QAVLNQPSSVSGSLGQRVSITCSGSSSNVGNGYVSWYQLIPGSAPRTLIYGDTSRASGVPDRFSGSRSGNTATLTISSLQAEDEADYFCASAEDSSSNAVFGSGTTLTVL
B9 was tested, and the “pseudovirus neutralization, ng/mL (quantity not given)” value [8] was > 1000 ng/mL, the “pseudovirus luciferase assay EC50” value [9] was > 1 nM and the “pseudovirus luciferase assay EC50” value [10] was > 1 nM.

B10: R2D6 chimeric bovine-human IgG1 antibody (antibody, V domains shown)
VH: QVQLRESGPSLVKPSQTLSLTCTTSGFSLSSYAVGWVRQAPGKALEWVGDIDYVGNTDYNPALKSRLSITKDNSKSQVSLVVSSVTAEDAATYYCAKYSGAYAYAACNYYGWRCAWESYIDAWGQGLLVTVSS
VL: QAVLNQPSSVSGSLGQRVSITCSGSSSNVGNGYVSWYQLIPGSAPRTLIYGDTSRASGVPDRFSGSRSGNTATLTISSLQAEDEADYFCASAEDSSSNAVFGSGTTLTVL
B10 showed an EC50 [11] of 0.41 nM and an EC50 [4] of 0.57 nM.

B11: RBD C6 chimeric bovine-human IgG1 antibody (antibody, V domains shown)
VH: QVQLRESGPSLVKPSQTLSLTCTVSGFSLSSNGVVWVRQAPGRPLEWLGDICSNGGTSFNPALKSRLSIAKDNSESQVSLTVRSVTPEDTATYYCARSRGYDCYAYVYALDTVDAWGQGLLVTVSS
VL: QAVLNQPSSVSGSLGQRVSITCSGSSSNVGNGYVSWYQLIPGSAPRTLIYGDTSRASGVPDRFSGSRSGNTATLTISSLQAEDEADYFCASAEDSSSNAVFGSGTTLTVL
B11 showed an EC50 [11] of 0.03 nM and an EC50 [4] of 0.03 nM.

B12: RBD A2 chimeric bovine-human IgG1 antibody (antibody, V domains shown)
VH: QVQLRESGPSLVKPLQILSLTCTVSGFSLSSNGVVWVRQAPGKALEWLGDICSTGGTSFNPALKSRLSIAKDNSKSQVSLSVRSVTPEDTATYYCARSRGYDCYANVDALDYVDAWGQGLLVTVSS
VL: QAVLNQPSSVSGSLGQRVSITCSGSSSNVGNGYVSWYQLIPGSAPRTLIYGDTSRASGVPDRFSGSRSGNTATLTISSLQAEDEADYFCASAEDSSSNAVFGSGTTLTVL
B12 was tested, and the EC50 [11] was 0.024 nM and the EC50 [4] was 0.03 nM.

B13: SR3A3 ultralong CDR3 chimeric bovine-human IgG1 antibody (antibody)
VH: QVQLRESGPSLVKPSQTLSLTCTISGFSLSSYAVLWVRQAPGKPLEWLGSIDTAENTGYNPGLKSRLSITKDNSKSQVSLSVSSVTTEDSATYYCATVHQKTRKEKNCPDGYIYSSNITSGFDCGVWICRRVGSAFCSRTGDYTSPTELDIYEFYVEGWGQGVPVTVSS
VL: QAVLNQPSSVSGSLGQRVSITCSGSSSNVGNGYVSWYQLIPGSAPRTLIYGDTSRASGVPDRFSGSRSGNTATLTISSLQAEDEADYFCASAEDSSSNAVFGSGTTLTVL
In the case of B13, the EC50 [11] is reported as 0.037 nM and the binding result [4] is reported as “binds”.
